# B1: OVOL1 (protein, UniProt O14753 1-267, looked up)
# Putative transcription factor …: MPRAFLVKKPCVSTCKRNWSELPDEERGEIYVPVSLGFCPPQPYREPEPSVAEPPSCPLALNMSLRDSSYSMAPGPCVVAQLPSEDMGHLTDPQSRDHGFLRTKMKVTLGDSPSGDLFTCRVCQKAFTYQRMLNRHMKCHNDVKRHLCTYCGKGFNDTFDLKRHVRTHTGVRPYKCSLCDKAFTQRCSLESHLKKIHGVQQKYAYKERRAKLYVCEECGCTSESQEGHVLHLKEHHPDSPLLRKTSKKVAVALQNTVTSLLQGSPHL
# B2: OLIG1 (protein, UniProt Q8TAK6 1-271, looked up)
# Oligodendrocyte transcription …: MYYAVSQARVNAVPGTMLRPQRPGDLQLGASLYELVGYRQPPSSSSSSTSSTSSTSSSSTTAPLLPKAAREKPEAPAEPPGPGPGSGAHPGGSARPDAKEEQQQQLRRKINSRERKRMQDLNLAMDALREVILPYSAAHCQGAPGRKLSKIATLLLARNYILLLGSSLQELRRALGEGAGPAAPRLLLAGLPLLAAAPGSVLLAPGAVGPPDALRPAKYLSLALDEPPCGQFALPGGGAGGPGLCTCAVCKFPHLVPASLGLAAVQAQFSK
# B3: NSD2 (protein, UniProt O96028 1-1365, looked up)
# Histone-lysine …: MEFSIKQSPLSVQSVVKCIKMKQAPEILGSANGKTPSCEVNRECSVFLSKAQLSSSLQEGVMQKFNGHDALPFIPADKLKDLTSRVFNGEPGAHDAKLRFESQEMKGIGTPPNTTPIKNGSPEIKLKITKTYMNGKPLFESSICGDSAADVSQSEENGQKPENKARRNRKRSIKYDSLLEQGLVEAALVSKISSPSDKKIPAKKESCPNTGRDKDHLLKYNVGDLVWSKVSGYPWWPCMVSADPLLHSYTKLKGQKKSARQYHVQFFGDAPERAWIFEKSLVAFEGEGQFEKLCQESAKQAPTKAEKIKLLKPISGKLRAQWEMGIVQAEEAASMSVEERKAKFTFLYVGDQLHLNPQVAKEAGIAAESLGEMAESSGVSEEAAENPKSVREECIPMKRRRRAKLCSSAETLESHPDIGKSTPQKTAEADPRRGVGSPPGRKKTTVSMPRSRKGDAASQFLVFCQKHRDEVVAEHPDASGEEIEELLRSQWSLLSEKQRARYNTKFALVAPVQAEEDSGNVNGKKRNHTKRIQDPTEDAEAEDTPRKRLRTDKHSLRKRDTITDKTARTSSYKAMEAASSLKSQAATKNLSDACKPLKKRNRASTAASSALGFSKSSSPSASLTENEVSDSPGDEPSESPYESADETQTEVSVSSKKSERGVTAKKEYVCQLCEKPGSLLLCEGPCCGAFHLACLGLSRRPEGRFTCSECASGIHSCFVCKESKTDVKRCVVTQCGKFYHEACVKKYPLTVFESRGFRCPLHSCVSCHASNPSNPRPSKGKMMRCVRCPVAYHSGDACLAAGCSVIASNSIICTAHFTARKGKRHHAHVNVSWCFVCSKGGSLLCCESCPAAFHPDCLNIEMPDGSWFCNDCRAGKKLHFQDIIWVKLGNYRWWPAEVCHPKNVPPNIQKMKHEIGEFPVFFFGSKDYYWTHQARVFPYMEGDRGSRYQGVRGIGRVFKNALQEAEARFREIKLQREARETQESERKPPPYKHIKVNKPYGKVQIYTADISEIPKCNCKPTDENPCGFDSECLNRMLMFECHPQVCPAGEFCQNQCFTKRQYPETKIIKTDGKGWGLVAKRDIRKGEFVNEYVGELIDEEECMARIKHAHENDITHFYMLTIDKDRIIDAGPKGNYSRFMNHSCQPNCETLKWTVNGDTRVGLFAVCDIPAGTELTFNYNLDCLGNEKTVCRCGASNCSGFLGDRPKTSTTLSSEEKGKKTKKKTRRRRAKGEGKRQSEDECFRCGDGGQLVLCDRKFCTKAYHLSCLGLGKRPFGKWECPWHHCDVCGKPSTSFCHLCPNSFCKEHQDGTAFSCTPDGRSYCCEHDLGAASVRSTKTEKPPPEPGKPKGKRRRRRGWRRVTEGK
# B4: PFDN5 (protein, UniProt Q99471 2-154, looked up)
# Prefoldin subunit 5: AQSINITELNLPQLEMLKNQLDQEVEFLSTSIAQLKVVQTKYVEAKDCLNVLNKSNEGKELLVPLTSSMYVPGKLHDVEHVLIDVGTGYYVEKTAEDAKDFFKRKIDFLTKQMEKIQPALQEKHAMKQAVMEMMSQKIQQLTALGAAQATAKA
# B5: PCBD (protein, UniProt P61457 2-104, looked up)
# Pterin-4-alpha-carbinolamine …: AGKAHRLSAEERDQLLPNLRAVGWNELEGRDAIFKQFHFKDFNRAFGFMTRVALQAEKLDHHPEWFNVYNKVHITLSTHECAGLSERDINLASFIEQVAVSMT
# B6: ATOH8 (protein, UniProt Q96SQ7 1-321, looked up)
# Transcription factor ATOH8: MKHIPVLEDGPWKTVCVKELNGLKKLKRKGKEPARRANGYKTFRLDLEAPEPRAVATNGLRDRTHRLQPVPVPVPVPVPVAPAVPPRGGTDTAGERGGSRAPEVSDARKRCFALGAVGPGLPTPPPPPPPAPQSQAPGGPEAQPFREPGLRPRILLCAPPARPAPSAPPAPPAPPESTVRPAPPTRPGESSYSSISHVIYNNHQDSSASPRKRPGEATAASSEIKALQQTRRLLANARERTRVHTISAAFEALRKQVPCYSYGQKLSKLAILRIACNYILSLARLADLDYSADHSNLSFSECVQRCTRTLQAEGRAKKRKE
# B7: PA2G4 (protein, UniProt Q9UQ80 2-394, looked up)
# Proliferation-associated …: SGEDEQQEQTIAEDLVVTKYKMGGDIANRVLRSLVEASSSGVSVLSLCEKGDAMIMEETGKIFKKEKEMKKGIAFPTSISVNNCVCHFSPLKSDQDYILKEGDLVKIDLGVHVDGFIANVAHTFVVDVAQGTQVTGRKADVIKAAHLCAEAALRLVKPGNQNTQVTEAWNKVAHSFNCTPIEGMLSHQLKQHVIDGEKTIIQNPTDQQKKDHEKAEFEVHEVYAVDVLVSSGEGKAKDAGQRTTIYKRDPSKQYGLKMKTSRAFFSEVERRFDAMPFTLRAFEDEKKARMGVVECAKHELLQPFNVLYEKEGEFVAQFKFTVLLMPNGPMRITSGPFEPDLYKSEMEVQDAELKALLQSSASRKTQKKKKKKASKTAENATSGETLEENEAGD
# B8: PATZ1 (protein, UniProt Q9HBE1 1-687, looked up)
# POZ-, AT hook-, and zinc …: MERVNDASCGPSGCYTYQVSRHSTEMLHNLNQQRKNGGRFCDVLLRVGDESFPAHRAVLAACSEYFESVFSAQLGDGGAADGGPADVGGATAAPGGGAGGSRELEMHTISSKVFGDILDFAYTSRIVVRLESFPELMTAAKFLLMRSVIEICQEVIKQSNVQILVPPARADIMLFRPPGTSDLGFPLDMTNGAALAANSNGIAGSMQPEEEAARAAGAAIAGQASLPVLPGVDRLPMVAGPLSPQLLTSPFPSVASSAPPLTGKRGRGRPRKANLLDSMFGSPGGLREAGILPCGLCGKVFTDANRLRQHEAQHGVTSLQLGYIDLPPPRLGENGLPISEDPDGPRKRSRTRKQVACEICGKIFRDVYHLNRHKLSHSGEKPYSCPVCGLRFKRKDRMSYHVRSHDGSVGKPYICQSCGKGFSRPDHLNGHIKQVHTSERPHKCQTCNASFATRDRLRSHLACHEDKVPCQVCGKYLRAAYMADHLKKHSEGPSNFCSICNRGFSSASYLKVHVKTHHGVPLPQVSRHQEPILNGGAAFHCARTYGNKEGQKCSHQDPIESSDSYGDLSDASDLKTPEKQSANGSFSCDMAVPKNKMESDGEKKYPCPECGSFFRSKSYLNKHIQKVHVRALGGPLGDLGPALGSPFSPQQNMSLLESFGFQIVQSAFASSLVDPEVDQQPMGPEGK
# B9: ATONAL1 (protein, UniProt Q92858 1-354, looked up)
# Transcription factor ATOH1: MSRLLHAEEWAEVKELGDHHRQPQPHHLPQPPPPPQPPATLQAREHPVYPPELSLLDSTDPRAWLAPTLQGICTARAAQYLLHSPELGASEAAAPRDEVDGRGELVRRSSGGASSSKSPGPVKVREQLCKLKGGVVVDELGCSRQRAPSSKQVNGVQKQRRLAANARERRRMHGLNHAFDQLRNVIPSFNNDKKLSKYETLQMAQIYINALSELLQTPSGGEQPPPPPASCKSDHHHLRTAASYEGGAGNATAAGAQQASGGSQRPTPPGSCRTRFSAPASAGGYSVQLDALHFSTFEDSALTAMMAQKNLSPSLPGSILQPVQEENSKTSPRSHRSDGEFSPHSHYSDSDEAS
# B10: NUP62 (protein, UniProt P37198 2-522, looked up)
# Nuclear pore glycoprotein p62: SGFNFGGTGAPTGGFTFGTAKTATTTPATGFSFSTSGTGGFNFGAPFQPATSTPSTGLFSLATQTPATQTTGFTFGTATLASGGTGFSLGIGASKLNLSNTAATPAMANPSGFGLGSSNLTNAISSTVTSSQGTAPTGFVFGPSTTSVAPATTSGGFSFTGGSTAQPSGFNIGSAGNSAQPTAPATLPFTPATPAATTAGATQPAAPTPTATITSTGPSLFASIATAPTSSATTGLSLCTPVTTAGAPTAGTQGFSLKAPGAASGTSTTTSTAATATATTTSSSSTTGFALNLKPLAPAGIPSNTAAAVTAPPGPGAAAGAAASSAMTYAQLESLINKWSLELEDQERHFLQQATQVNAWDRTLIENGEKITSLHREVEKVKLDQKRLDQELDFILSQQKELEDLLSPLEELVKEQSGTIYLQHADEEREKTYKLAENIDAQLKRMAQDLKDIIEHLNTSGAPADTSDPLQQICKILNAHMDSLQWIDQNSALLQRKVEEVTKVCEGRRKEQERSFRITFD
# B11: PBX3 (protein, UniProt P40426 1-434, looked up)
# Pre-B-cell leukemia …: MDDQSRMLQTLAGVNLAGHSVQGGMALPPPPHGHEGADGDGRKQDIGDILHQIMTITDQSLDEAQAKKHALNCHRMKPALFSVLCEIKEKTGLSIRGAQEEDPPDPQLMRLDNMLLAEGVSGPEKGGGSAAAAAAAAASGGSSDNSIEHSDYRAKLTQIRQIYHTELEKYEQACNEFTTHVMNLLREQSRTRPISPKEIERMVGIIHRKFSSIQMQLKQSTCEAVMILRSRFLDARRKRRNFSKQATEILNEYFYSHLSNPYPSEEAKEELAKKCSITVSQVSNWFGNKRIRYKKNIGKFQEEANLYAAKTAVTAAHAVAAAVQNNQTNSPTTPNSGSSGSFNLPNSGDMFMNMQSLNGDSYQGSQVGANVQSQVDTLRHVINQTGGYSDGLGGNSLYSPHNLNANGGWQDATTPSSVTSPTEGPGSVHSDTSN
# B12: OVOL3 (protein, UniProt O00110 1-190, looked up)
# Putative transcription factor …: MPRAFLVRSRRPQPPNWGHLPDQLRGDAYIPDCSSLGGPPAQQSSSVRDPWTAQPTQGNLTSAPRGPGTLGCPLCPKAFPLQRMLTRHLKCHSPVRRHLCRCCGKGFHDAFDLKRHMRTHTGIRPFRCSACGKAFTQRCSLEAHLAKVHGQPASYAYRERREKLHVCEDCGFTSSRPDTYAQHRALHRAA
# B13: OLIG3 (protein, UniProt Q7RTU3 1-272, looked up)
# Oligodendrocyte transcription …: MNSDSSSVSSRASSPDMDEMYLRDHHHRHHHHQESRLNSVSSTQGDMMQKMPGESLSRAGAKAAGESSKYKIKKQLSEQDLQQLRLKINGRERKRMHDLNLAMDGLREVMPYAHGPSVRKLSKIATLLLARNYILMLTSSLEEMKRLVGEIYGGHHSAFHCGTVGHSAGHPAHAANSVHPVHPILGGALSSGNASSPLSAASLPAIGTIRPPHSLLKAPSTPPALQLGSGFQHWAGLPCPCTICQMPPPPHLSALSTANMARLSAESKDLLK
# Test system: HEK293FT cells transfected with TF library
# Assay: Screening of TF condensates based on fluorescent puncta
# Format: cell-based
# Settings: Figure 1B numerical data; TF library screen, one value per transcriptional factor
# In short: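 HEK293FT cells were reverse-transfected with Flag- or GAL4-tagged TF plasmids (1.6 μg/ml, PEI). After 60 h, cells were cultured 12 h with or without glucose, then fixed and immunostained with anti-Flag or anti-GAL4 and Alexa 488 secondaries. Fluorescent puncta were imaged over fifty random fields per well by high-content imaging.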
row,Molecule,Z score of condensed fraction
1,B1,-0.194
2,B2,-1.059
3,B3,-0.8212
4,B4,0.7455
5,B5,-0.6656
6,B6,-1.0319
7,B7,0.5274
8,B8,-0.2188
9,B9,-0.5192
10,B10,-0.01313
11,B11,0.7478
12,B12,-0.7593
13,B13,-0.3841

# From PMC11574045, “A cofactor-induced repressive type of transcription factor condensation can be induced by synthetic peptides to suppress tumorigenesis” (The EMBO Journal, 2024)
